{"source": "patent US7164008B2", "about": "“Isolated complexes of endotoxin and MD-2” (priority 2003, dated 2007)", "molecules": {"B1": {"name": "wt MD-2: soluble polyhistidine-tagged recombinant wild-type MD-2 in conditioned insect cell culture medium (protein)", "chain": "QKQYWVCNSSDASISYTYCDKMQYPISINVNPCIELKRSKGLLHIFYIPRRDLKQLYFNLYITVNTMNLPKRKEVICRGSDDDYSFCRALKGETVNTTISFSFKGIKFSKGKYKCVVEAISGSPEEMLFCLEFVILHQPNSNHHHHHH"}}, "molecular_target": "T1, TLR4 (Homo sapiens, UniProt O00206+Q9Y6Y9)", "T1 construct": "host or cells: HEK293 stably transfected with TLR4 (HEK/TLR4)", "T1 sequence (O00206 24-839, one chain of several)": "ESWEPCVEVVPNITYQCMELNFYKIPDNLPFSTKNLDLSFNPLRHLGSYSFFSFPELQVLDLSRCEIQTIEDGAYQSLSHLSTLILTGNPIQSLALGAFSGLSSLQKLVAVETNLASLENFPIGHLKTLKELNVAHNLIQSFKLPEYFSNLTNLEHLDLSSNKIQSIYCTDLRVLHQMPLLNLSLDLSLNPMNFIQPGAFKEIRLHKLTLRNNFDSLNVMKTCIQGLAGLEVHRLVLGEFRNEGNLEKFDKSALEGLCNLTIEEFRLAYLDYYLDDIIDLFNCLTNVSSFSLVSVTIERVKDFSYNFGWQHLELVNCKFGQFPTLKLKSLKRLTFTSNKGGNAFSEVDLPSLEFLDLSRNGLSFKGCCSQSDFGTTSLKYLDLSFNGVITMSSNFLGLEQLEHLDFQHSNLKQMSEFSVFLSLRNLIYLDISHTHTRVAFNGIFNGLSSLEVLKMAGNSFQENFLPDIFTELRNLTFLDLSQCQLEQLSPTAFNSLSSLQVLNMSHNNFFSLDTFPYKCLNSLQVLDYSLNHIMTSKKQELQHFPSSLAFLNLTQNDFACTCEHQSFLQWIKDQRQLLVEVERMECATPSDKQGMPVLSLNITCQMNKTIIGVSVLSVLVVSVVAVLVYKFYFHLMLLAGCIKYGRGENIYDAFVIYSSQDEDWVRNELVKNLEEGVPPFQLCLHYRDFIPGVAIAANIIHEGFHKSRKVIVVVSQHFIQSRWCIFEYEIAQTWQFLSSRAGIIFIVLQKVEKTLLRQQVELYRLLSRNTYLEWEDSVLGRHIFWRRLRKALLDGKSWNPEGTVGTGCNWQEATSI", "assay": "HEK cell activation assay: extracellular IL-8 by ELISA", "type": "cell-based", "source_text": "Conditioned insect cell culture medium containing soluble, polyhistidine-tagged recombinant wild-type (wt) or C95Y mutant MD-2 were generated according to the method of Viriyakosol et al. (2001). A human embryonic kidney cell line (HEK293) that stably expresses TLR4 (HEK/TLR4), but lacks both CD14 and MD-2 (Yang et al., 2000), was used to evaluate the effect of MD-2 on the ability of lipooligosaccharide (LOS) to interact with TLR4 and promote activation.\nFIG. 1 depicts the expression and bioactivity of recombinant MD-2-His6. FIGS. 1A and 1B depict SDS-PAGE immunoblots of control culture medium (FIG. 1A, lane 1) or medium from HiFive cells infected with recombinant baculovirus encoding wt (FIG. 1A, lane 2; FIG. 1B, lanes 1–3) or C95Y MD-2 (FIG. 1B, lane 4). MD-2 was detected using anti-(His)4 antibody. All samples represent 1 μl of culture medium except B, lanes 2 and 3, which represent 0.3 and 0.1 μl and A, lane 3, which represents molecular weight markers. In FIG. 1C, HEK/TLR4 cells were incubated in HEPES-buffered HBSS+/0.1% albumin with [^14C]-LOSagg (3 ng/ml)+/−LBP (30 ng/ml) and/or (60 μl) culture medium containing wt MD-2 (MD-2) (open bars); LOSagg+LBP and sCD14 (250 ng/ml)+/−wt (closed bars) or C95Y “MD-2” (striped bars), or [^14C]-LOS-sCD14 (2 ng LOS/ml)+/−wt or C95Y “MD-2” (closed bars). After overnight incubation, extracellular IL-8 was assayed by ELISA. In FIG. 1D, HEK/TLR4 cells were incubated with increasing amounts of wt (▪) or C95Y (◯) MD-2+[^14C]-LOS-sCD14 (2 ng/ml) and cell activation measured. Results shown are from one experiment (duplicate samples) representative of four independent experiments.\nIn FIG. 2, a bioactive complex (Mr˜25,000) containing MD-2 and [^14C]-LOS is formed by incubation of [^14C]-LOS-sCD14 with wt, but not C95Y, MD-2. In FIG. 2A, dialyzed control insect cell medium (◯) or medium containing wt (♦) or C95Y ( ? ) MD-2 was incubated for 30 min, 37° C. with (1:1 vol/vol) [^14C]-LOS-sCD14 in HBSS+, 10 mM HEPES and chromatographed on Sephacryl S100. Column fractions were analyzed for [^14C]-LOS. Identical results were obtained in analytical (5 ng [^14C]-LOS/ml+200 μl culture medium) or more preparative runs (reagents concentrated 20×). In FIG. 2B, peak fractions (Mr˜25,000) from treatment of [^14C]-LOS-sCD14 with wt MD-2 (FIG. 2A) were re-chromatographed on S100 in HBSS+, 10 mM HEPES without HSA; recovery of [^14C]-LOS was >80%. In FIG. 2C, HEK (□) or HEK/TLR4 (▪) were incubated overnight with the indicated amounts of LOS added as purified Mr˜25,000 (LOS-MD-2) complex. Cell activation was measured by IL-8 accumulation. Results shown correspond to one experiment, in duplicate, representative of three similar experiments. FIGS. 2D and 2E depict adsorption and elution of bioactive Mr˜25,000 complex to HisBind resin. Peak fractions of the purified complex (FIG. 2B; 10 ng [^14C]-LOS) were dialyzed against PBS and incubated with HisBind resin (0.125 ml) for 1 hr at 25° C. and processed as described in Methods. Non-adsorbed (Flow-thru) and adsorbed material eluted with 200 mM imidazole were precipitated with trichloroacetic acid to concentrate sample for SDS-PAGE/immunoblot analysis. […]\nPurified [^14C]-LOSagg or [^14C]-LOS-sCD14 (3 ng LOS/ml)+/−indicated proteins (30 ng/ml LBP, 250 ng/ml sCD14, 60 μl culture medium) were incubated at 37° C. for 30 min. After this incubation, samples were analyzed by gel filtration chromatography to monitor formation of [^14C]-LOS-MD-2 and by incubation with HEK/TLR4 cells to measure cell activation. […]", "data": [{"molecule": "B1", "values": [{"measurement": "MD-2 concentration producing maximum cell activation", "setting": "HEK/TLR4 with [^14C]-LOS-sCD14 (2 ng/ml)", "result": 30, "unit": "ng/mL"}, {"measurement": "activation of HEK/TLR4 cells by LOS-sCD14 (or LOSagg+LBP+sCD14) on addition of medium containing MD-2", "setting": "IL-8 release, LOS-sCD14 2 ng LOS/ml", "result": "robust activation"}, {"measurement": "inhibition of activation of HEK/TLR4 by [^14C]-LOS-MD-2 by added MD-2", "setting": "[^14C]-LOS-MD-2 0.3 ng/ml, increasing amounts of conditioned medium", "result": "dose-dependent inhibition"}]}]}
